Values quoted from earlier work as cited in PMC11394807.
Read-outs that look alike come from different tables or passages of the source.

What was measured:
[1] = biological target: Spike protein (SARS-CoV-2) (UniProt P0DTC2)
[2] = biological target: Spike protein (SARS-CoV-2) (UniProt P0DTC2); remark: listed apart in the source
[3] = biological target: Spike protein RBD (SARS-CoV-2) (UniProt P0DTC2)
[4] = biological target: Spike protein (SARS-CoV-2) (UniProt P0DTC2); remark: listed apart in the source
[5] = biological target: Spike protein (SARS-CoV-2) (UniProt P0DTC2); remark: listed apart in the source

GRP78, sequence (P11021 19-654): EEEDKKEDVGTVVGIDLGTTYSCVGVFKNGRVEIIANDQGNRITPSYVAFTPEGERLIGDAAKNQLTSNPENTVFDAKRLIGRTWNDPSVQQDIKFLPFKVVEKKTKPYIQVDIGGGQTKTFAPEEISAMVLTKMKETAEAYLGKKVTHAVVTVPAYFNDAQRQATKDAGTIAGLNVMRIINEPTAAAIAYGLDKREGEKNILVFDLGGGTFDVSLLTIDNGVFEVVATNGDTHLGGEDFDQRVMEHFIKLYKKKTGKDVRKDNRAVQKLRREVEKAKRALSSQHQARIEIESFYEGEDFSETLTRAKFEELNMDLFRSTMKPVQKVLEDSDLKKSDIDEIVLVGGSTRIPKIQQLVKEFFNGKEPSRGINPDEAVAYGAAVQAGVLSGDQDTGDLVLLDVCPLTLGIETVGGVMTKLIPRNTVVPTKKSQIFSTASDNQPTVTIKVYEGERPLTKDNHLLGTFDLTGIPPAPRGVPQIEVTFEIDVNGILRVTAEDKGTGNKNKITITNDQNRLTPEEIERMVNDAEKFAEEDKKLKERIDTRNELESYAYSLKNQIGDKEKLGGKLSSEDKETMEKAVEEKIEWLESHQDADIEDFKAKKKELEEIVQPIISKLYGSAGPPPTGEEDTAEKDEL
ASGR1, sequence (P07306 whole entry): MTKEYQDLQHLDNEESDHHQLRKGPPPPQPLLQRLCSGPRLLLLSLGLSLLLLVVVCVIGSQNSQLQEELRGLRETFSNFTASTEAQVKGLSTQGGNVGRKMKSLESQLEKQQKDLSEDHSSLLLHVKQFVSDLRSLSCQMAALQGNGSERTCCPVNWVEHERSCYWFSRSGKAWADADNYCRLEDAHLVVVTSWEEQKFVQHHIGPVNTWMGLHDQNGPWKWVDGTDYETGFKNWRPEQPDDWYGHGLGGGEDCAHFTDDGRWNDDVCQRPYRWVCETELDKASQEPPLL

ASGR1 (from UniProt P07306)
Kd [1]: 125 nM

AXL (from UniProt P30530)
Kd [2]: 882 nM

CD147 (from UniProt P35613)
Kd [3]: 185 nM

GRP78 (from UniProt P11021)
Kd [4]: 55.2 nM

NRP1 (from UniProt O14786)
Kd [5]: 166 nM
